This is an account of results in patent US20150361150A1.

The assay concerns the target tyrosine-protein kinase KIT on the surface of human KIT+ GIST cell lines (GIST 882, GIST 48) (human) (UniProt P10721). As to the kind of experiment: cell-based or functional assay.
Chain of UniProt P10721 (P10721 26-976): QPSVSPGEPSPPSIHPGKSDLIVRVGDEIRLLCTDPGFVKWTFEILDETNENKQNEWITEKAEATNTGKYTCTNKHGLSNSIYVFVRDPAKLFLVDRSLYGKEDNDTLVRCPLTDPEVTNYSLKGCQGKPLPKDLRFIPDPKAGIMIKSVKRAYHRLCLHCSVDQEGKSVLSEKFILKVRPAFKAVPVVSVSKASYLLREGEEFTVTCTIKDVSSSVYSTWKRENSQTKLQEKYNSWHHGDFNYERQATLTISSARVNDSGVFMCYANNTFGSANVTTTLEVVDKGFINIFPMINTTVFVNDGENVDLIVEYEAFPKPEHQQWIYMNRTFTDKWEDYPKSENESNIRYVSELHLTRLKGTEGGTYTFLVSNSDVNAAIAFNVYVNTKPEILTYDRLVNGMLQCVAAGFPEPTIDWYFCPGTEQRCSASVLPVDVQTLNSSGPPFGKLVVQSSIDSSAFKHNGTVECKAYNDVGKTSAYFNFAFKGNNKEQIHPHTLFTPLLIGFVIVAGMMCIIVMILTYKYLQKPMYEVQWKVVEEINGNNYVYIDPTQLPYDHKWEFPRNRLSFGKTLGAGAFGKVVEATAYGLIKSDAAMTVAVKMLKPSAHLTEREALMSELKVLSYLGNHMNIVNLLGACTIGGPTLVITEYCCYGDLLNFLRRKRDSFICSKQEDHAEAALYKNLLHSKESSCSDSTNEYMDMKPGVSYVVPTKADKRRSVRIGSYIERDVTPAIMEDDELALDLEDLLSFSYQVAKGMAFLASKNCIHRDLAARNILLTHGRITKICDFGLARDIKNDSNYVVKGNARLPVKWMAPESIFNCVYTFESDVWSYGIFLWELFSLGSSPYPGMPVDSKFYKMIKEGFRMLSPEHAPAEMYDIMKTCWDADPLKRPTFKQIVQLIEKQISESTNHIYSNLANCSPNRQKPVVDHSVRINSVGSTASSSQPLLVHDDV

The substance “1^st generation anti-KIT chimeric immune receptor (extracellular domain of KIT ligand fused to the CD3 zeta chain), expressed on human designer T cells” gave a percent of designer T cells divided (CFSE dilution) in co-culture with KIT+ GIST882 cells of 39%.
In the case of “2^nd generation anti-KIT chimeric immune receptor (extracellular domain of KIT ligand fused to CD28 and CD3 zeta), expressed on human designer T cells” it was 47%.
